Results: patent US20160340421A1 (Regeneron, published 2016)

Key:
[1] = target: T1, Human GDF8 homodimer (mature human Growth and Differentiation Factor-8) (human, UniProt O14793 267-375); assay: SPR, antibody captured, buffer without BSA
T1 construct: also called hGDF8; myostatin
T1 sequence: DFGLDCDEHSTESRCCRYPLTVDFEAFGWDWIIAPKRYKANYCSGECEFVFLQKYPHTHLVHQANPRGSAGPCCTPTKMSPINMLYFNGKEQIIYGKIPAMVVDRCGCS
Description: (§1) Equilibrium dissociation constants (KD values) for antigen binding to selected antibodies were determined by surface kinetics using a real-time biosensor surface plasmon resonance assay (BIACORE™ 2000). Each selected antibody was captured on either a goat anti-mouse IgG polyclonal antibody surface or a goat anti-hFc polyclonal antibody (Jackson Immuno Research Lab) surface created through direct chemical coupling to a BIACORE™ chip to form a captured antibody surface. Human GDF8 homodimer, hGDF11 homodimer, or hGDF5 homodimer at 25 nM was injected over the captured antibody surfaces, and antigen-antibody binding and dissociation were monitored in real time at room temperature. Kinetic analysis was performed to calculate KD, dissociation rate constants (kd), association rate constants (ka) and half-life of antigen/antibody complex dissociation (Table 2).

[2] = target: T1, Human GDF8 homodimer (mature human …); assay: SPR Biacore 3000, buffer without BSA
[3] = target: T2, B48 chimera: GDF8.1-47.BMP2.48-77.GDF8.73-109; assay: Western blot of CHO.hFurin supernatant
T2 construct: CHO.hFurin supernatant
T2 chain: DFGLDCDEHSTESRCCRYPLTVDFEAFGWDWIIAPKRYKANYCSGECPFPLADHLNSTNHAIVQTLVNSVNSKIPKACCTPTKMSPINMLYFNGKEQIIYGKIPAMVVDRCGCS
Description: (§2) The various chimeric GDF8 pro-proteins were transiently transfected in an engineered stable CHO.hFurin cell line. A similar Western Blot analysis as described above was used to detect the binding of various anti-hGDF8 antibodies to each of the chimeric GDF8. Briefly, […] of CHO supernatant were loaded onto each lane of an SDS-PAGE (non-reducing or reducing) gel and electroblotted onto a PVDF membrane. The membrane was then incubated with an anti-GDF8 antibody at 2 μg/ml followed by exposure to the appropriate secondary antibody conjugated to HRP.

[4] = target: T3, GDF8/TGFβ[48-72] chimera (T48): GDF8.1-47.TGFβ1.49-76.GDF8.73-109 (human GDF8 with human TGFβ-1 sequence); assay: Western blot of CHO.hFurin supernatant
T3 construct: used as CHO conditioned medium / supernatant; also called GDF8/TGFβ-1 chimeric construct
T3 chain: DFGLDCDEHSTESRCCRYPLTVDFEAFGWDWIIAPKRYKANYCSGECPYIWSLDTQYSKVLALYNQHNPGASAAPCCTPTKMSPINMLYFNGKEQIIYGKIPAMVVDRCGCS
Description: as §2

[5] = target: T1, Human GDF8 homodimer (mature human …); assay: cell-based or functional assay
hGDF11 homodimer [6] = target: T4, hGDF11 homodimer (human, UniProt O95390 299-407); assay: GDF11-inducible luciferase bioassay, 0.4 nM GDF11 (legend: NB=no binding)
T4 sequence (looked up): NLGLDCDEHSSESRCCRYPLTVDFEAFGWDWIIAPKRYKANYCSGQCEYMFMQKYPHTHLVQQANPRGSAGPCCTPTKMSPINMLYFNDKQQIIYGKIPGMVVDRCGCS

[7] = target: T1, Human GDF8 homodimer (mature human …); assay: SPR Biacore T100, captured on anti-hFc, 25°C
Description: (§3) Additional antigen binding experiments were conducted in which GDF8 and GDF11 were applied over a surface of selected anti-GDF8 antibodies and control antibodies at 25° C. and 37° C. Equilibrium dissociation constants (KD values) for antigen binding to selected antibodies were determined by surface kinetics using a real-time biosensor surface plasmon resonance assay (BIACORE™ T100). […] Various concentrations (2.5-0.625 nM, 2-fold dilutions) of hGDF8 homodimer or hGDF11 homodimer (or in some experiments, Activin A) were injected over the captured antibody surfaces, and antigen-antibody binding and dissociation were monitored in real time. Kinetic analysis was performed to calculate KD, dissociation rate constants (kd), association rate constants (ka) and half-life of antigen/antibody complex dissociation. (NB=no binding observed).

[8] = target: T1, Human GDF8 homodimer (mature human …); assay: SPR Biacore T100, captured on anti-hFc, 37°C
Description: as §3

hGDF11 homodimer [9] = target: T4, hGDF11 homodimer; assay: SPR, antibody captured, 25 nM antigen
Description: as §1

[10] = target: T1, Human GDF8 homodimer (mature human …); assay: SPR, antibody captured, 25 nM antigen
Description: as §1

[11] = target: T5, T65 chimera: GDF8.1-64.TGFβ1.69-76.GDF8.73-109 (Mus musculus (Mouse), UniProt O08689 268-376); assay: Western blot of CHO.hFurin supernatant, antibody 2 µg/ml
T5 construct: CHO.hFurin supernatant
T5 chain: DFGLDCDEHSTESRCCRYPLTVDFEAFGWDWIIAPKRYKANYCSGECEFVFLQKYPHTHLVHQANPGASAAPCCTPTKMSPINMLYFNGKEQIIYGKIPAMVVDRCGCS
Description: as §2

[12] = target: T2, B48 chimera: …; assay: as above
Description: as §2

[13] = target: T6, B91 chimera: GDF8.1-90.BMP2.96-110.GDF8.106-109; assay: as above
T6 construct: CHO.hFurin supernatant
T6 chain: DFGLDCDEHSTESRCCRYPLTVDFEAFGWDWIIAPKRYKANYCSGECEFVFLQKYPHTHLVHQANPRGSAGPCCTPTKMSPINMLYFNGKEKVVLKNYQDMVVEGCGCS
Description: as §2

hGDF11 homodimer [14] = target: T4, hGDF11 homodimer; assay: cell-based or functional assay
[15] = target: T1, Human GDF8 homodimer (mature human …); assay: cell-based or functional assay; remark: listed apart in the source
hGDF11 homodimer [16] = target: T4, hGDF11 homodimer; assay: cell-based or functional assay; remark: listed apart in the source
hGDF11 homodimer [17] = target: T4, hGDF11 homodimer; assay: SPR, antibody captured, buffer without BSA
Description: as §1

[18] = target: T3, GDF8/TGFβ[48-72] chimera (T48): …; assay: cell-based or functional assay

B1: 8D12 (antibody, V domains shown)
VH: QVQLVESGGGVVQPGRSLRLSCAASGFTFSRYGIHWVRQAPGKGLEWVAVISYDGSDEYYVDSVKGRFSISRDNSKNTLYLQMNSLRPADSAVYYCVKGDLELGFDYWGQGTLVTVSS
VL: DIVMTQAAPSIPVIPGESVSMSCRSSKSLLYSNGHTYVYWFVQRPGQSPQLLIYRMSNLASGVPDRFSGSGSGTAFTLRISRVEAEDVGVYYCMQNLEFPLTFGAGTKLELK
notes: also called antibody 8D12; 8D12 Antibody
Q: B1 was tested. Which Kd [1] did it give?
A: 0.016 nM

Q: And the T1/2 [1]?
A: 14 h

Q: And the Kd [2]?
A: 0.071 nM

Q: And the T1/2 [2]?
A: 2.32 h

Q: Does B1 bind [3]?
A: no binding (tested: 2 µg/ml)

Q: Does B1 bind [4]?
A: no binding (tested: 2 µg/ml)

Q: And the “IC50, luciferase bioassay, 0.5 nM GDF8” value [5]?
A: 3.11 nM

Q: What about the “IC50, luciferase bioassay, 1 nM GDF8” value [5] of the same binder?
A: 5.55 nM

B2: H4H1669P (antibody, V domains shown)
VH: QVQLVESGGGVVQPGKSLRLSCAASGFTFSSFGMHWVRQAPGKGLEWVAVIGYDGGNEYYADSVKGRFTISRDNSKNTLNLQMSSLRAEDTAVYYCSTISHYDILSGMDVWGRGTTVTVSS
VL: DIQMTQSPSSVSASVGDRVTITCRASQGISNWLAWYQQKPGKAPKLLIFAASSLQSGVPSRFSGSASGTDFTLTINSLQPEDFATYYCQQANSFPLTFGGGTKVEIKR
notes: captured by anti-hFc, so human Fc
Q: Does B2 bind (hGDF11 homodimer [6])?
A: no binding

Q: What about the Kd [7] of the same binder?
A: 0.0393 nM

Q: What about the T1/2 [7] of the same binder?
A: 2.18 h

Q: And the Kd [8]?
A: 0.0584 nM

Q: What about the T1/2 [8] of the same binder?
A: 0.667 h

Q: What about the “IC50, luciferase bioassay, 0.5 nM GDF8” value [5] of the same binder?
A: 0.9 nM

B3: 1A2 (antibody, V domains shown)
VH: EVQLLESGGGLVQPGGSLRLSCAASGFTSITYAMSWVRQAPGKGLEWVSAISVSGTNTYYADSVKGRFTISRDKSKNMLYLQMNSLRAEDTAVYYCAKDLLHNWKYGTFDIWGQGTMVTVSS
VL: EIVMTQSPATLSVSPGERATLSCRASQSVDSNLVWYQQKPGQVPRLLIYGASTRATGIPARFSGSGSGTEFTLTISSLQSEDFAVYYCQQYNKWPLTFGGGTKVEIK
notes: also called 1A2 mAb
Q: With B3 as the binder, how does the Kd (hGDF11 homodimer [9]) read?
A: 0.3 nM

Q: What about the T1/2 (hGDF11 homodimer [9]) of the same binder?
A: 0.467 h

Q: What about the Kd [10] of the same binder?
A: 0.32 nM

Q: And the T1/2 [10]?
A: 1 h

Q: Does B3 bind [11]?
A: binds

Q: Does B3 bind [12]?
A: binds

Q: Does B3 bind [13]?
A: binds

Q: And the “IC50, GDF11-inducible luciferase, A204/Smad2 cells, 0.8 nM GDF11” value (hGDF11 homodimer [14])?
A: 1400 nM

Q: What about the “IC50, GDF8-inducible luciferase, A204/Smad2 cells, 0.8 nM GDF8” value [15] of the same binder?
A: 0.8 nM

Q: What about the “IC50, luciferase bioassay, 0.4 nM GDF11” value (hGDF11 homodimer [16]) of the same binder?
A: ~600 nM

Q: And the “IC50, luciferase bioassay, 0.8 nM GDF11” value (hGDF11 homodimer [16])?
A: ~800 nM

Q: And the “IC50, luciferase bioassay, 0.5 nM GDF8” value [5]?
A: 0.196 nM

Q: What about the “IC50, luciferase bioassay, 1 nM GDF8” value [5] of the same binder?
A: 0.363 nM

B4: 1A2-mIgG (antibody, V domains shown)
VH: EVQLLESGGGLVQPGGSLRLSCAASGFTSITYAMSWVRQAPGKGLEWVSAISVSGTNTYYADSVKGRFTISRDKSKNMLYLQMNSLRAEDTAVYYCAKDLLHNWKYGTFDIWGQGTMVTVSS
VL: EIVMTQSPATLSVSPGERATLSCRASQSVDSNLVWYQQKPGQVPRLLIYGASTRATGIPARFSGSGSGTEFTLTISSLQSEDFAVYYCQQYNKWPLTFGGGTKVEIK
notes: variable domains of 1A2
Q: With B4 as the binder, how does the Kd (hGDF11 homodimer [17]) read?
A: 0.926 nM

Q: What about the T1/2 (hGDF11 homodimer [17]) of the same binder?
A: 1 min

Q: And the Kd [1]?
A: 0.018 nM

Q: And the T1/2 [1]?
A: 2.53 h

B5: 1A2-hFc (antibody, V domains shown)
VH: EVQLLESGGGLVQPGGSLRLSCAASGFTSITYAMSWVRQAPGKGLEWVSAISVSGTNTYYADSVKGRFTISRDKSKNMLYLQMNSLRAEDTAVYYCAKDLLHNWKYGTFDIWGQGTMVTVSS
VL: EIVMTQSPATLSVSPGERATLSCRASQSVDSNLVWYQQKPGQVPRLLIYGASTRATGIPARFSGSGSGTEFTLTISSLQSEDFAVYYCQQYNKWPLTFGGGTKVEIK
Q: Which “approximate IC50, luciferase bioassay with GDF8/TGFβ[48-72] conditioned medium” value [18] does the source give for B5 here?
A: 0.357 nM
